In patent US20200054763A1 (DEBIOPHARM INTERNATIONAL S A, published 2020):

Molecular target: T1, human CD37 (human, UniProt P11049 1-281)
T1 sequence: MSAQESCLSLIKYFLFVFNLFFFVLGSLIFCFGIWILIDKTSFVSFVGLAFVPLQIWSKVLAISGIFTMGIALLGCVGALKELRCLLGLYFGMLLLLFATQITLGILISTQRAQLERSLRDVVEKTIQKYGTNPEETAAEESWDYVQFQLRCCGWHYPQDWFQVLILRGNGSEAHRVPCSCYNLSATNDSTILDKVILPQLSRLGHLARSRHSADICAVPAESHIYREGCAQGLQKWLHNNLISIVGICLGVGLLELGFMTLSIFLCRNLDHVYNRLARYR
Test: cell-based or functional assay

B1: IMGN529 (naratuximab emtansine) (antibody, V domains shown)
VH: QVQVQESGPGLVAPSQTLSITCTVSGFSLTTSGVSWVRQPPGKGLEWLGVIWGDGSTNYHPSLKSRLSIKKDHSKSQVFLKLNSLTAADTATYYCAKGGYSLAHWGQGTLVTVSS
VL: DIQMTQSPSSLSVSVGERVTITCRASENIRSNLAWYQQKPGKSPKLLVNVATNLADGVPSRFSGSGSGTDYSLKINSLQPEDFGTYYCQHYWGTTWTFGQGTKLEIKR
modifications: maytansinoid DM1 linked through the SMCC linker; attachment residues and chain not stated
With B1 as the binder, how does the “median IC50, cell proliferation (MTT assay, 72 hours), B cell lymphoma cell lines (n=46)” value read?
Its value is 0.45 nM.

And the “median IC50, cell proliferation (MTT assay, 72 hours), T cell lymphoma cell lines (n=8)” value?
Its value is 22.5 nM.

And the “median IC50, cell proliferation (MTT assay, 72 hours), fifty-four lymphoma cell lines” value?
The value was 0.79 nM.
